From PMC2937177

Target: T1, KcsA (S. lividans), P0A334
T1 chain: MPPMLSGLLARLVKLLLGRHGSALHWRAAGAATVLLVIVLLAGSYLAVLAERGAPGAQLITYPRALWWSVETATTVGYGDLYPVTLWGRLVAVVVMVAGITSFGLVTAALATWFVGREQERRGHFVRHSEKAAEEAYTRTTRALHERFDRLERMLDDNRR
Test: SDS-PAGE
Settings: remark: other sources report otherwise

stoichiometry N: 4
B1: KcsA, P0A334 1-160 (natural protein)
chain: T1 chain
